Source: patent US20210260216A1 (OSPEDALE SAN RAFFAELE S R L, published 2021)

Target: p53 (Homo sapiens (Human), UniProt P04637 1-393)
Assay: cell-based or functional assay

Sequence of p53 (P04637 whole entry): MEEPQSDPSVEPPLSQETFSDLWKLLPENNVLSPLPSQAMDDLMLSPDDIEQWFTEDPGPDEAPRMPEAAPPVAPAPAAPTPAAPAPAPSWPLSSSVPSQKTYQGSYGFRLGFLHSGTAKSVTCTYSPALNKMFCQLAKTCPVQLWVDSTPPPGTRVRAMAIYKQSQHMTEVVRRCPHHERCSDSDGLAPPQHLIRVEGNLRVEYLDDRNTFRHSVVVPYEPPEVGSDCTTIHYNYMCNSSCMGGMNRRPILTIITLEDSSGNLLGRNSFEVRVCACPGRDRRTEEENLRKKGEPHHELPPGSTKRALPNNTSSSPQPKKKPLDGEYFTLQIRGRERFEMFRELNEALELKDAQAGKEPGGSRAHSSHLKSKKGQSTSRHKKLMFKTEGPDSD

B1: GSE56 (p53 dominant negative peptide) (peptide)
peptide: MDGWCPGRDRRTEEENFRKKEEHCPELPPGSAKRALPTSTSSSPQQKKKPLDGEYFTLKIRGRERFEMFRELNEALELKDARAAEESGDSRAHSSYPKIVS
- fold decrease in TaqMan assay of CDKN1A (p21) gene fold expression at 24 hours post-editing: ~3 fold
